From PMC9482650, “Quantitative fragmentomics allow affinity mapping of interactomes” (Nature Communications, 2022)

T1: APBA2_1, Q99767
T1 sequence (Q99767 563-664, limits assumed, looked up): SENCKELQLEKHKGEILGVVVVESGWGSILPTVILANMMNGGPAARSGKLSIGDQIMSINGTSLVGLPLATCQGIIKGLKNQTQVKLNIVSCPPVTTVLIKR

T2: DFNB31_3, Q9P202
T2 sequence (Q9P202 811-907, limits assumed, looked up): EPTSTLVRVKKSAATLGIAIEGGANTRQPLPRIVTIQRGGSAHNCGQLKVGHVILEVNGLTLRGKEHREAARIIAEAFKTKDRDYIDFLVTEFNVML

T3: DLG3_3, Q92796
T3 sequence (Q92796 374-475, limits assumed, looked up): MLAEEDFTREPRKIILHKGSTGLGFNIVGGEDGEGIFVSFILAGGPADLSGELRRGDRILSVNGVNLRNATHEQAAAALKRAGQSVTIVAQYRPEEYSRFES

T4: FRMPD1, Q5SYB0
T4 sequence (Q5SYB0 52-145, limits assumed, looked up): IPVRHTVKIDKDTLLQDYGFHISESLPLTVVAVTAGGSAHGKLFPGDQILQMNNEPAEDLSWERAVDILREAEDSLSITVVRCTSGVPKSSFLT

T5: GRIP1_2, Q9Y3R0
T5 sequence (Q9Y3R0 145-248, limits assumed, looked up): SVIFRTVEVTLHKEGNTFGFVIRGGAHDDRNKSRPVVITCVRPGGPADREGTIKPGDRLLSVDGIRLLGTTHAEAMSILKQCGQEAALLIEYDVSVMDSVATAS

T6: LNX2_3, Q8N448
T6 sequence (Q8N448 463-564, limits assumed, looked up): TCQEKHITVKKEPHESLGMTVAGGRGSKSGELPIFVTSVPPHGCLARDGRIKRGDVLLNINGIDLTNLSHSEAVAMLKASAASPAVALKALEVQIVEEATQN

T7: MPDZ_12, O75970
T7 sequence (O75970 1857-1958, limits assumed, looked up): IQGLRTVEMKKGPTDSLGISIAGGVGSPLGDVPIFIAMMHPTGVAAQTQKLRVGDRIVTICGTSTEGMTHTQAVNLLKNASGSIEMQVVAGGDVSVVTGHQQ

T8: MPDZ_5, O75970
T8 sequence (O75970 695-796, limits assumed, looked up): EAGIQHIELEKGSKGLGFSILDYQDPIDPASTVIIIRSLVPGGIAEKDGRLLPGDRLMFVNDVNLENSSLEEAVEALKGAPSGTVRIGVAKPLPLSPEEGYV

T9: PDZD2_2, O15018
T9 sequence (O15018 329-429, limits assumed, looked up): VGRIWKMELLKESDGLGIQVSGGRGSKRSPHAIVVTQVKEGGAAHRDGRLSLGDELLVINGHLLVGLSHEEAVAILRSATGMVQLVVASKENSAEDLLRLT

T10: PTPN13_1, Q12923
T10 sequence (Q12923 1088-1188, limits assumed, looked up): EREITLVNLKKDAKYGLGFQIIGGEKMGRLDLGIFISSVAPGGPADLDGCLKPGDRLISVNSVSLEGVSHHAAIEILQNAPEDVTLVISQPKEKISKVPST

T11: RAPGEF6, Q8TEU7
T11 sequence (Q8TEU7 525-625, limits assumed, looked up): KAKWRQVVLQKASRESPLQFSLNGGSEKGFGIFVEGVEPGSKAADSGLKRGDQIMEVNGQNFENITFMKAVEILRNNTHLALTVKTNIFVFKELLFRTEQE

T12: RHPN1, Q8TCX5
T12 sequence (Q8TCX5 508-602, limits assumed, looked up): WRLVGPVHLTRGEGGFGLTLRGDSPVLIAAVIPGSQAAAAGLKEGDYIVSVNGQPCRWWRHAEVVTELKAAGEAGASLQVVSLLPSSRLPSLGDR


Columns and labels:
Experiment in all cases: holdup assay
Set-up in all cases: key: below the threshold = too weak to quantify, mostly under pKd 3.1 to 4
Settings in all cases: plain residues with an end cap or a label only (N-terminal biotin on a linker: ado-ado)
[1] = molecular target: AHNAK1, Q09666
[2] = molecular target: T1, APBA2_1, Q99767
[3] = molecular target: T2, DFNB31_3, Q9P202
[4] = molecular target: DLG2_2, Q15700
[5] = molecular target: T3, DLG3_3, Q92796
[6] = molecular target: T4, FRMPD1, Q5SYB0
[7] = molecular target: FRMPD2_3, Q68DX3
[8] = molecular target: T5, GRIP1_2, Q9Y3R0
[9] = molecular target: GRIP2_3, Q9C0E4
[10] = molecular target: GRIP2_7, Q9C0E4
[11] = molecular target: HTRA2, O43464
[12] = molecular target: Inadl_8, Q8NI35
[13] = molecular target: LNX1_2, Q8TBB1
[14] = molecular target: T6, LNX2_3, Q8N448
[15] = molecular target: MAGI2_2, Q86UL8
[16] = molecular target: T7, MPDZ_12, O75970
[17] = molecular target: T8, MPDZ_5, O75970
[18] = molecular target: NHERF4_1, Q86UT5-2
[19] = molecular target: NOS1, P29475
[20] = molecular target: T9, PDZD2_2, O15018
[21] = molecular target: T10, PTPN13_1, Q12923
[22] = molecular target: T11, RAPGEF6, Q8TEU7
[23] = molecular target: T12, RHPN1, Q8TCX5
[24] = molecular target: SNX27, Q96L92

DLG2_2, Q15700, sequence (Q15700 189-283): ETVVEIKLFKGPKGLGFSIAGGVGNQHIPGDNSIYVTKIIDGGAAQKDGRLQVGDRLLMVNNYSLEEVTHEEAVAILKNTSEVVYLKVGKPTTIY
MAGI2_2, Q86UL8, sequence (Q86UL8 410-522): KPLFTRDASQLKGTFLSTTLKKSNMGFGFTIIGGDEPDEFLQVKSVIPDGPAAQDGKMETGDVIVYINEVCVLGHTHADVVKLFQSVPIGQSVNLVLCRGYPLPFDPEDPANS
GRIP2_7, Q9C0E4, sequence (Q9C0E4 934-1023): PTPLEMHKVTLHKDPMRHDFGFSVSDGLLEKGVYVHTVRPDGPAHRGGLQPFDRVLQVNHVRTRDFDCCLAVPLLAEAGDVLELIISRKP
NOS1, P29475, sequence (P29475 9-101): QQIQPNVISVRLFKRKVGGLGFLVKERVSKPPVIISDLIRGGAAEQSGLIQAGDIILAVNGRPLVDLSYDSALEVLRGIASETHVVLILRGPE
NHERF4_1, Q86UT5-2, sequence (Q86UT5 other isoform, or with tags, fused parts or gaps): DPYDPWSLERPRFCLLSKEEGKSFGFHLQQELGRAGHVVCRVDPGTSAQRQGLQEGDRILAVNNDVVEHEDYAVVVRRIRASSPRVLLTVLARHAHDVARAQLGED
GRIP2_3, Q9C0E4, sequence (Q9C0E4 238-339): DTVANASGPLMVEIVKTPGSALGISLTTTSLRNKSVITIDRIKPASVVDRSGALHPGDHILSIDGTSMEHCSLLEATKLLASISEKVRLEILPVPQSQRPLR
FRMPD2_3, Q68DX3, sequence (Q68DX3 1073-1166): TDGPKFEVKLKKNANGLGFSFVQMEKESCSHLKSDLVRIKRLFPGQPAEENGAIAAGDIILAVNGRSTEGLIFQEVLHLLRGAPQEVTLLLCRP
LNX1_2, Q8TBB1, sequence (Q8TBB1 371-470): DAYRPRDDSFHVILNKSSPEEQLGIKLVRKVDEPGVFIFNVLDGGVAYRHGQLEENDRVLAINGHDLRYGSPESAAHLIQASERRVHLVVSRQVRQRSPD
HTRA2, O43464, sequence (O43464 355-458): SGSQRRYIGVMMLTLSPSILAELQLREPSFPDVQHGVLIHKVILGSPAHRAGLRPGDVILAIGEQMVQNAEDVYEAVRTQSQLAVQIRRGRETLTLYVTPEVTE
AHNAK1, Q09666, sequence (Q09666 4-100): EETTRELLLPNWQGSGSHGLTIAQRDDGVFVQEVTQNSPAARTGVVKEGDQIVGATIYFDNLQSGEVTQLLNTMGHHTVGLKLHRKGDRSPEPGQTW
Inadl_8, Q8NI35, sequence (Q8NI35 1425-1530): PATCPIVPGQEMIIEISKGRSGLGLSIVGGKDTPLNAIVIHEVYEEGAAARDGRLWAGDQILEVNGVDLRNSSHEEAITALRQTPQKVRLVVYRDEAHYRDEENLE

pKd [1]	pKd [2]	pKd [3]	pKd [4]	pKd [5]	pKd [6]	pKd [7]	pKd [8]	pKd [9]	pKd [10]	pKd [11]	pKd [12]	pKd [13]	pKd [14]	pKd [15]	pKd [16]	pKd [17]	pKd [18]	pKd [19]	pKd [20]	Binder	further results
below the threshold	below the threshold	below the threshold	3.58	below the threshold	below the threshold	below the threshold	below the threshold	below the threshold	below the threshold	below the threshold	3.98	below the threshold	below the threshold	3.58	below the threshold	below the threshold	below the threshold	below the threshold	4.72	LGRSTPQSEV [DGKH, Q86XP1]	pKd [21]: below the threshold; pKd [22]: below the threshold; pKd [23]: 4.49; pKd [24]: 3.89
below the threshold	below the threshold	below the threshold	below the threshold	below the threshold	below the threshold	below the threshold	below the threshold	below the threshold	below the threshold	below the threshold	below the threshold	below the threshold	below the threshold	below the threshold	below the threshold	below the threshold	below the threshold	below the threshold	3.7	GSGAVEMESV [AQP6, Q13520]	pKd [21]: below the threshold; pKd [22]: below the threshold; pKd [23]: below the threshold; pKd [24]: 3.7
below the threshold	below the threshold	below the threshold	below the threshold	below the threshold	below the threshold	below the threshold	below the threshold	below the threshold	below the threshold	4.66	below the threshold	4.1	below the threshold	below the threshold	below the threshold	below the threshold	below the threshold	below the threshold	below the threshold	YNNCLEILRV [DCAF7, P61962]	pKd [21]: below the threshold; pKd [22]: below the threshold; pKd [23]: below the threshold; pKd [24]: below the threshold
below the threshold	below the threshold	below the threshold	4.95	4.16	below the threshold	below the threshold	below the threshold	below the threshold	below the threshold	below the threshold	4.29	3.54	below the threshold	4.6	below the threshold	below the threshold	below the threshold	3.64	4.25	PPYRHRNTVV [ERBB4, Q15303]	pKd [21]: below the threshold; pKd [22]: below the threshold; pKd [23]: 3.6; pKd [24]: 4.42
below the threshold	below the threshold	below the threshold	5.11	4.11	below the threshold	below the threshold	below the threshold	below the threshold	below the threshold	below the threshold	3.58	below the threshold	below the threshold	4.58	below the threshold	below the threshold	3.71	3.96	4.98	RRISSLESEV [GRIN2C, Q14957]	pKd [21]: below the threshold; pKd [22]: below the threshold; pKd [23]: 4.66; pKd [24]: 4.97
below the threshold	below the threshold	below the threshold	below the threshold	below the threshold	below the threshold	below the threshold	below the threshold	below the threshold	below the threshold	3.91	below the threshold	below the threshold	below the threshold	below the threshold	3.67	below the threshold	4.13	below the threshold	below the threshold	CLREWCDAFL [BANF1, O75531]	pKd [21]: 3.58; pKd [22]: 3.47; pKd [23]: below the threshold; pKd [24]: 4.58
